These results are taken from patent US11555055B2, “Peptide inhibitors of insulin-degrading enzyme” (The Regents of the University of California, priority 2017, dated 2023).

Where a SMILES comes first, the peptide text is derived from it. Bridges are numbered along the chain shown (N, C = ends). Where no end group is shown, it is not given here. Bounds are passed on as bounds.

Assay [1] concerns multiple matrix-metalloproteases (MMPs). Kind of assay: Matrix Metalloproteinase (MMP) Inhibitor Profiling Kit, positive control. It counts as biochemical. The conditions noted are these: P<0.01. The method, then:
FIG. 8A-B. Selectivity of P12-3A for IDE vis-à-vis other proteases. Activity of P12-3A (100 μM) against (A) multiple matrix-metalloproteases (MMPs) and (B) multiple peptidases of different protease classes. […] Data are mean±SEM, n=8-16 per group. P<0.05 by 2-tailed Student's t-test. […] See Experimental Procedures for details. NEP, neprilysin; mCatD, murine cathepsin D; hCatD, human cathepsin D.
Degradation Assays—IDE activity was quantified by monitoring the degradation of (7-methoxycoumarin-4-yl)acetic acid-[…](2,4-dinitrophenyl) (FRET1, 5 μM) (49,55), fluoresceinated and biotinylated amyloid β-protein (FAβB; 500 nM) or recombinant human insulin (50 nM) in PBS supplemented with 0.05% BSA. FRET1 degradation was measured by changes in fluorescence (λex=340 nm, λem=420 nm); FAβB degradation was monitored by fluorescence polarization (λex=488 nm, λem=525 nm), as described (56); and insulin degradation was quantified by ELISA. In vitro activity assays incorporated recombinant human IDE (1 nM) purified from bacteria (35). For quantitation of insulin degradation in primary murine skin fibroblasts, cells (1×10^5/well) were plated in 96-well plates and maintained in DMEM supplemented with 10% fetal bovine serum (FBS), 2 mM glutamine, penicillin and streptomycin. […]

Assay [2] addresses T1, IDE (Homo sapiens, UniProt P14735).
T1 construct: made in house; host or cells: bacteria
T1 sequence (P14735 1-1019): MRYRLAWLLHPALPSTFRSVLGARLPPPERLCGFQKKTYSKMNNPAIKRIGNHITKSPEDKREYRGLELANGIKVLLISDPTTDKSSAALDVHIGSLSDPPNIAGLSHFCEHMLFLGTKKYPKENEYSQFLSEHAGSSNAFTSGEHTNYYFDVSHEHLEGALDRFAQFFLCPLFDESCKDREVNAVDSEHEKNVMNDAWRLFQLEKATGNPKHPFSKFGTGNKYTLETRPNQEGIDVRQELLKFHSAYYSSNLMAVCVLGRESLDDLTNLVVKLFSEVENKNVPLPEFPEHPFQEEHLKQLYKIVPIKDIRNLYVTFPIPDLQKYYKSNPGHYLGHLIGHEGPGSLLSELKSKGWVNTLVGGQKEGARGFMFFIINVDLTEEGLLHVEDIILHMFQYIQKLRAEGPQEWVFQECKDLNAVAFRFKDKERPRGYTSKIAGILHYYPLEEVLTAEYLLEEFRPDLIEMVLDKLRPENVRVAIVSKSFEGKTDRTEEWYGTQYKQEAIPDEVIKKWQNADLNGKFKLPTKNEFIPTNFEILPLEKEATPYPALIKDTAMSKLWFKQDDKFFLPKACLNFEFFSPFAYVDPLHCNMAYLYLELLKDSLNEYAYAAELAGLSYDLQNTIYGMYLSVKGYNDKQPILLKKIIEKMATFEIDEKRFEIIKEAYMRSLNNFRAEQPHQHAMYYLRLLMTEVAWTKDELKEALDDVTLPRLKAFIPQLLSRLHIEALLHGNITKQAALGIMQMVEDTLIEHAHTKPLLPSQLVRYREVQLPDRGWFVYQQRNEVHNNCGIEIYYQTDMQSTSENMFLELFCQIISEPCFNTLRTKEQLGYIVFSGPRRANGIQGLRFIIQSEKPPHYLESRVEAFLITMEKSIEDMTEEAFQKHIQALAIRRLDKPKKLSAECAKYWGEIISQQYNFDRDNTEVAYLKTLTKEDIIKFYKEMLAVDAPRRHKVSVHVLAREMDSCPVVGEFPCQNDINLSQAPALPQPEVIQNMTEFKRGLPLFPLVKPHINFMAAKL
Kind of assay: IDE protease activity assay, insulin degradation quantified by ELISA. It counts as biochemical. The conditions noted are these: substrate recombinant human insulin; Ki converted from IC50 with the Cheng-Prusoff equation; read-out: Ki Insulin. The method, then: To assess the extent to which these peptide sequences inhibit IDE, we quantified their potency in protease activity assays using recombinant human IDE and two different substrates: FRET1, a fluorogenic peptide (45), and recombinant human insulin.
Degradation Assays—IDE activity was quantified by monitoring the degradation of (7-methoxycoumarin-4-yl)acetic acid-[…](2,4-dinitrophenyl) (FRET1, 5 μM) (49,55), fluoresceinated and biotinylated amyloid β-protein (FAβB; 500 nM) or recombinant human insulin (50 nM) in PBS supplemented with 0.05% BSA. FRET1 degradation was measured by changes in fluorescence (λex=340 nm, λem=420 nm); FAβB degradation was monitored by fluorescence polarization (λex=488 nm, λem=525 nm), as described (56); and insulin degradation was quantified by ELISA. In vitro activity assays incorporated recombinant human IDE (1 nM) purified from bacteria (35). For quantitation of insulin degradation in primary murine skin fibroblasts, cells (1×10^5/well) were plated in 96-well plates and maintained in DMEM supplemented with 10% fetal bovine serum (FBS), 2 mM glutamine, penicillin and streptomycin. After addition of insulin (10 nM or 100 nM), samples of conditioned medium were removed daily and quickly frozen, then insulin levels were quantified in parallel by ELISA according to manufacturer's recommendations (Crystal Chem, Downers Grove, Ill., USA). Assessment of the activity of P12-3A against a variety of matrix-metalloproteases was conducted using the Matrix Metalloproteinase (MMP) Inhibitor Profiling Kit, Fluorometric RED (Enzo Life Sciences, Inc., Farmingdale, N.Y., USA) according to manufacturer's recommendations using the broad-spectrum MMP inhibitor, NNGH, as a positive control.

Assay [3] addresses T1, IDE. As to the kind of experiment: IDE protease activity assay with FRET1 substrate. The conditions noted are these: Ki converted from IC50 with the Cheng-Prusoff equation. It counts as biochemical.
The target of assay [4] is T2, recombinant human insulin-degrading enzyme (IDE) (human, UniProt P14735 42-1019, limits assumed).
T2 construct: Used at 1 nM in the in vitro activity assays; immobilised on plates for phage panning
T2 sequence (looked up): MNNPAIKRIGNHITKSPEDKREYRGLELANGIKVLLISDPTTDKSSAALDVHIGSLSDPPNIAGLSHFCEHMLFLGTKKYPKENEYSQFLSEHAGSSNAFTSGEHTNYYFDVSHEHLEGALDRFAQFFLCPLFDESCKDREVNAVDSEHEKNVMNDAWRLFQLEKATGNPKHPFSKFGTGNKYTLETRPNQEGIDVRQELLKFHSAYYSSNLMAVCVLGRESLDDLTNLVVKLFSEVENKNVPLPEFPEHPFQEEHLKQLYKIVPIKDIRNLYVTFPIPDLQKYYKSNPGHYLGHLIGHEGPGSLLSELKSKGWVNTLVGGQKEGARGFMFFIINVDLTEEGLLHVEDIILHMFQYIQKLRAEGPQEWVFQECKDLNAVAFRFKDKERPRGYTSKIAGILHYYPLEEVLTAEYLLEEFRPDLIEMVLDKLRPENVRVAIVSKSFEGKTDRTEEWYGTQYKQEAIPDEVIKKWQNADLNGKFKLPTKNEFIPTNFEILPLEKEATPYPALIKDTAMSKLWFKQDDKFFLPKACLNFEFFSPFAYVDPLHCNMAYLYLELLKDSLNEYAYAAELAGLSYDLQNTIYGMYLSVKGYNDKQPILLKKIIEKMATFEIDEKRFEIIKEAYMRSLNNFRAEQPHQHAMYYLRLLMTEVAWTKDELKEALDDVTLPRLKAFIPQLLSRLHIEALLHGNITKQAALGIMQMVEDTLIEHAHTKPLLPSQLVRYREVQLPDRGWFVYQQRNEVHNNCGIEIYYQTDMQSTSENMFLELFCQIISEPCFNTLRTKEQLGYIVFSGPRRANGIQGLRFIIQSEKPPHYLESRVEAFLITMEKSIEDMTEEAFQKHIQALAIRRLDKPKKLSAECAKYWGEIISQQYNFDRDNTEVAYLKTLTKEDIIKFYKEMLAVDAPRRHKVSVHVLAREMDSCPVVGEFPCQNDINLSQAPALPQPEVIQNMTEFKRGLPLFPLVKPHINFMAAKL
As to the kind of experiment: FRET1 activity assay after 0 or 4 h pre-incubation of the peptide with IDE.

The target of assay [5] is T2, recombinant human insulin-degrading …. As to the kind of experiment: IDE activity assay, insulin substrate (ELISA); IC50 converted to Ki (Cheng-Prusoff).
The target is the same in assay [6]. As to the kind of experiment: IDE activity assay, FRET1 substrate; IC50 converted to Ki (Cheng-Prusoff).
Assay [7] has the same target. Kind of assay: IDE activity assay, insulin substrate (ELISA).
Assay [8] has the same target. As to the kind of experiment: IDE activity assay, FRET1 degradation.
For assay [9] the target is unchanged. Kind of assay: IDE activity assay, FAβB degradation (fluorescence polarization).

With `COc1ccc(S(=O)(=O)N(CC(=O)NO)CC(C)C)cc1` [NNGH], the “inhibition of MMPs by positive control” value in [1] was “significant inhibition”.

`CC[C@H](C)[C@H](NC(=O)[C@@H]1CCCN1C(=O)[C@H](CO)NC(=O)[C@@H](N)Cc1c[nH]c2ccccc12)C(=O)N[C@@H](CO)C(=O)NCC(=O)N[C@@H](CCCCN)C(=O)N[C@@H](Cc1ccccc1)C(=O)N[C@@H](Cc1ccccc1)C(=O)N[C@@H](CCC(N)=O)C(=O)N[C@@H](CCCNC(=N)N)C(=O)N[C@@H](Cc1ccccc1)C(=O)O` [Peptide P12-4] (H-WSPISGKFFQRF-OH): the Ki was 1.5 ± 0.3 µM on IDE [2] and 3.9 ± 0.5 µM at IDE [3].

B1: P12-3A (QSLPWCYPHCVT-amide), as first synthesized, not deliberately cyclized (peptide)
peptide: H-QSLPWCYPHCVT-NH2
modifications: not fully specified; printed as QSLPWCYPHCVT-amide; cysteine pairing not given here
notes: also called C-terminally amidated variant of P12-3
With B1, the “fold increase in potency at the 4-h time point relative to t=0” value in assay [4] turned out to be 1 fold.

B2: P12-3 (peptide)
peptide: H-QSLPWCYPHCVT-OH
modifications: not fully specified; cysteine pairing not given here
notes: Two cysteines predicted to form a disulfide bond; not deliberately cyclized before testing
On to B2, for which the Ki in assay [5] turned out to be 3.9 µM; in [6], 8.9 µM.

B3: P12-1C (peptide)
peptide: Ac-FRQWWQPS
notes: also called N-terminally truncated variant of P12-1
B3: the values for the Ki in [7] and in assay [6] were over 10 µM and 139 µM, respectively.

B4: P12-3A, deliberately cyclized, highly pure cosmetic-grade version (peptide)
peptide: QSLPWCYPHCVT-NH2
modifications: disulfide 6-10 (inferred)
notes: also called cyclized P12-3A
As to B4, the values for the Ki in [8] and in [9] were 2.7 µM and 2.1 µM, respectively.
